The numbers were not newly measured in patent publication US20200129630A1, “METHODS FOR TREATING CANCER” (BicycleRD Limited, priority 2018, published 2020), which cites them from elsewhere.

Read-outs that look alike come from different tables or passages of the source.

The conditions of series [1]: animals, 58 to 228 mg/m^2 (0.85 and […]^2 DM1) weekly.
Test in series [2]: not given
This is another data set of the same source.

B1: Lorvotuzumab mertansine: anti-CD56 ADC with DM1, SPP cleavable linker (conjugate, chains of the INN, looked up)
VH: QVQLVESGGGVVQPGRSLRLSCAASGFTFSSFGMHWVRQAPGKGLEWVAYISSGSFTIYYADSVKGRFTISRDNSKNTLYLQMNSLRAEDTAVYYCARMRKGYAMDYWGQGTLVTVSS
VL: DVVMTQSPLSLPVTLGQPASISCRSSQIIIHSDGNTYLEWFQQRPGQSPRRLIYKVSNRFSGVPDRFSGSGSGTDFTLKISRVEAEDVGVYYCFQGSHVPHTFGQGTKVEIK
modifications: mertansine (DM1) via SPP linker
As for B1, where the note is “3 consecutive days every 3 weeks”, the “Recommended Phase 2 dose (RP2D)” value was “Recommended Phase 2 dose (RP2D) was 60 mg/m^2”. For the setting “all patients”, the “neurosensory AEs (all grades)” value was 17%. Besides, under “in vivo”, the “Grade 3 or 4 TEAEs hyponatremia and dyspnea (each)” value is “(each 8.2%)[38]. Lorvotuzumab mertansine is currently”; the t½ entry is reported as “approximately 40 hours”.

B2: Cantuzumab mertansine: Anti-CanAg ADC with DM1, SPP cleavable linker (conjugate, chains of the INN, looked up)
VH: QVQLVQSGAEVKKPGETVKISCKASDYTFTYYGMNWVKQAPGQGLKWMGWIDTTTGEPTYAQKFQGRIAFSLETSASTAYLQIKSLKSEDTATYFCARRGPYNWYFDVWGQGTTVTVSS
VL: DIVMTQSPLSVPVTPGEPVSISCRSSKSLLHSNGNTYLYWFLQRPGQSPQLLIYRMSNLVSGVPDRFSGSGSGTAFTLRISRVEAEDVGVYYCLQHLEYPFTFGPGTKLELK
modifications: mertansine (DM1) via SPP linker
On to B2, for which, in series [1], the axonal degeneration result is given as “mild axonal degeneration”. Besides, the “DLT (Grade 3)” value in series [2] (IV three-times a week) was “transaminitis. Hepatic, hematological, and neurosensory”. For the same molecule, the MTD result is “three-times a week [37], The MTD was 45 mg/m^2” in series [2] (IV three-times a week) and 115 mg/m^2/week (~1.9 mg/m^2/week DM1) with DLTs in series [2] (weekly administration). For the same molecule, in series [2] (every 3 weeks), the RP2D entry was “from this trial was 235 mg/m^2 every 3 weeks (~3.9 mg/m^2”. Besides, in series [2] (in vivo), the t1/2 was 40 h.
